The record followed here is the DeepSol protein solubility set.

The data set in a line: soluble on expression in E. coli; label from the status in PepcDB or PDB records.
Consider “MGTLIMENETNLSEVELRKNLIANINDCKTLLQLGEIYYSSGRYYLAANYLSYVMKMTNDAALYEKSNQLLFLAERAIQINNNDKMFSNFEFLDTLIMELLNCLKNHYYYNIDIELFELMHVRPSVDSIVVNTQNEKEEIVKHLQGLEELYFNLNDSFSKELLIKLLTFRLLGNHKVKMPLNTIDYWKQRKSIPNLIHSSETLQTNYHNWTLQLFDLTPLKYNLRLFYVPMGISATFLDKQYEYNKISPVIKVKEGDVVIDAGGCFGDTALYFAHEVGETGHVYTIEFIPSNLEIMSKNINLNEKLQNNITIVKHPLWNVSNTSLYYKDQGAASFVTFSEESGVTDKVSTITIDNLVVEHKLHKLDFIKMDVEGAEMNALKGAIHSITTFRPTLAIAIYHQISDFVNVMRFINDLNLGYQFYLGHYTVNAQETILFAVAREKMEVSDENEE”, for which the “soluble on expression in E. coli” value is on record as “soluble”. For the sequence “GMLPDDVNQADVLADVTAAFYRYEKALTGNDVAVLDELFWHDEKTVRYGAGENLYGIEEIRAFRLARPSAGLDRALRNTVITTYGHDMAVASTEFTRTGSTKIGRQMQTWVKMPEGWRIVAAHVSLMSE”, the “soluble on expression in E. coli” value was “soluble”. Turning to “MKHVPPTVLVWFRNDLRLHDHEPLHRALKSGLAITAVYCYDPRQFAQTHQGFAKTGPWRSNFLQQSVQNLAESLQKVGNKLLVTTGLPEQVIPQIAKQINAKTIYYHREVTQEELDVERNLVKQLTILGIEAKGYWGSTLCHPEDLPFSIQDLPDLFTKFRKDIEKKKISIRPCFFAPSQLLPSPNIKLELTAPPPEFFPQINFDHRSVLAFQGGETAGLARLQDYFWHGDRLKDYKETRNGMVGADYSSKFSPWLALGCLSPRFIYQEVKRYEQERVSNDSTHWLIFELLWRDFFRFVAQKYGNKLFNRGGLLNKNFPWQEDQVRFELWRSGQTGYPLVDANMRELNLTGFMSNRGRQNVASFLCKNLGIDWRWGAEWFESCLIDYDVCSNWGNWNYTAGIGNDARDFRYFNIPKQSQQYDPQGTYLRHWLPELKNLPGDKIHQPWLLSATEQKQWGVQLGVDYPRPCVNFHQSVEARRKIEQMGVIA”, the “soluble on expression in E. coli” value was “soluble”. For “MLRATNNRRTSNNVEKDSLQMAKHGNGPLKPVNAQGLQTKREAREILALKPSNPAPVETAQKSQRINLQDAETKCLAMADDIYKYLVHHEKKYLLEECFMEGGEPTPKMRRILVDWLVQVHVRFHLTPETLHLTVFILDRMLQKKVTSKADLQLLGISAMFVASKFEEVYLPDIHDYEFITENTYSKKQILAMEQTILNSLNFDLSCPSSLVFLRCLSRILSENDASPIDNQAFCYTYNISKCLGELALLDSVMASTPRSHIASASMIIALEVHPVDGIEAENAVSVICKQLGASKKVIEDAVALLAEVSYKNFKQGKLVAIKNKYQSSKLAQVSNLMTDDVLEKINRMGQNAKVDASEME”, the “soluble on expression in E. coli” value is listed as “soluble”.

With “MSQLPGLSRETRESIAMYHLRVPQTEEELERYYQFRWEMLRKPLHQPKGSERDAWDAMAHHQMVVDEQGNLVAVGRLYINADNEASIRFMAVHPDVQDKGLGTLMAMTLESVARQEGVKRVTCSAREDAVEFFAKLGFVNQGEITTPTTTPIRHFLMIKPVATLDDILHRGDWCAQLQQAWYEHIPLSEKMGVRIQQYTGQKFITTMPETGNQNPHHTLFAGSLFSLATLTGWGLIWLMLRERHLGGTIILADAHIRYSKPISGKPHAVADLGALSGDLDRLARGRKARVQMQVEIFGDETPGAVFEGTYIVLPAKPFGPYEEGGNEEELEHHHHHH”, the “soluble on expression in E. coli” value was “not soluble”.

“MSDMSEQSVEIASSQLGTKDFWDQRYELELKNFKQHGDEGEVWFGTSSETRIVKYLIDSKTGKDAKILDLGCGNGSVLRKLRSKGFQSLKGVDYCQKAVDLSAAASKAEREEEEDEELVDIEFEQLDITTPPADFFSSKFDVILDKGTWDAMSLSDEREARLKAYLGFLDNGLSAGGRFVIFSCNFTFDEMCSQFGGGGGSTSLEIVCEVPASHSFSFGGKQGVTSTGAVFRKKTL”: the “soluble on expression in E. coli” value is given as “not soluble”. With “MGSDKIHHHHHHMRYSICYTPSARDPLSLAAASWLGRNVYSDEPVEHPGLAGLGLHEIAFHTALPRRNGFHGCLKAPFALHPEVSEAQLLRELMHFAGIVEPFALPGLEVAKLGDFCGLTLTHPSNQLDRVAALVVQNFDRFRAPLSDAEIERMAPERLSAPQFANLYRWGDPHVLDEYRFYMPLTGPLPLSHRDRLHQAATHYFAPLLQNPVVFANLALFIEREPGAPLVVHSLHPMGRVSARKIA”, the “soluble on expression in E. coli” value is recorded as “not soluble”. For “MGHHHHHHSHMFVYLNPNPKNTLRIDAEALTETRRLAARAWDLKYQMTKQGMHQRMLRAELDNLEILERGHSAALTTNLSLLANVLLDQPAPPDPTQGEEKGLPPSSRVESRTEGVYTVTVYPGDPAFEIQDSLPQKIWPMLYLHQQRWLPSYGPWHIRFTSSAMQLRNFPRSLRGQANFQNSMSLKLITALTDVISRISLDFYSDLRHLSDTMSALCLIAAYYSEKNQTPLPTNLPELLGNITAKVTLLVRDLKRAAANKGFNFNRNSSSLLPAQGGLYSNDFFQEHALYSLFRTAGMLASSSSPEYPRADSVLAITAAVFGDNIPPFAAYQWNLRSGLKALESLILLFLLLDVNVPATSNKRLHLEALLGESYSKGSRPPARRTGPLDAGGSVFSFLMENYLVPTLLHRPTTNMSALFPGLYLLQLEFSSGASTPHAIHLTDVKFRDIFNILVQSNVFQDSQELIRAKQSLRVSCETGSGNLLESLSPGTTMRDIIRKEFMAQDVYDYVYFCVLGALPVTVAVV”, the “soluble on expression in E. coli” value is listed as “not soluble”. In the case of “MGSDKIHHHHHHMAIITRIEVQKRNNERYNIFIHQNGQDVYAFSVDEQVLIKQGLRKGLDIDAEQMKQILYEDEVQKTFNLALHYLSYRMRSVHEVRTYLKKKDREEPIIEHVLHRLTEQRLLDDHAFAEAFIQTKRATTSKGPLKLKQELAEKGVSEKTIEGALTTFSYEEQVEQVKAWLEKQKGRTFKGSSLAWKQKLSRQLLAKGYTSPVIEEAFADVPIKQEEEEEWEALKAFGEKAMRKYAGKKTGWELQQKVKQALYRKGFSLEMIERYLND” it was “not soluble”. Take “MSSPRHVFYISDRTGLTAENIGEALLNQFGNLSFKRHTHPFVDTPEKARAVVEKVNRSRQENGQRPIAFVSVVDDEIRRIIKGADAFQINFFETFLGLLEKELNTEATASGQGHHSIGNTKRYDARMEAVNFSLNHDDGVSDKNLQEADVILMGVSRSGKTPTCLYLALQYGIRAANYPLIPDDLESADLPRMVKPYRDKLFGLTIQPERLQAIRQERRPNSTYAKIDTCRSEVADAQSMFRRHGIPFANTTDKSVEELAVHILQACKLKRRF”: the “soluble on expression in E. coli” value is on record as “not soluble”. In the case of “MLEKNPTLEKLLKSLEDIQAIDIKIIDVHKQTTITDFMVVTSGRSSRHVKSIAQKVLEDMKVAGLPCLSSTGIEHGDWALIDFGDIILHVMQPEFRHFYNLEGLWEEHPGNSLEHHHHHH”, the “soluble on expression in E. coli” value was “not soluble”. In the case of “MDRNLVQKGDAPPSKRSDPGTEFCVDIVVKGRKTEVPERFRKHVAEKLKLEKIQKLDGKVISLDVEVSKEPNPRQADRCDRVEITLRSRGPVIRAEAAASDPYAALDLAAEKLGARLRKQHDKRFSRRGARRISAAEVADHVPGAATLNGNGDVVPTEKQDGVPTKKIGSLEVQGDGPLVVREKTHVAAPMSLDQALYEMELVGHDFYLFVDSETKEPSVVYRRHAYDYGVIHLTTDTMVTQAHAPDAGDALGGLEHHHHHH” it was “not soluble”; in that of “MKARKAKEFVFNDLLSMESYCINHYSDYYSKSNFSCNVTQLSKGELVTSSICAPINDAHLEIFKSNQTILYEEEANQNSVAFCWINSNGEQAQTNTIISGHKMMDLSIAGFNRLNKTGGNVWDIVGANTQLCCMSLKWEKVKEKINQMNAYNAFAKLEECIGIDSNSSASIQLKSLFERHFTKGLRESEAFYDLAIATLEEPCDLEILTERSDKTELIEDLVKLLYEDREGMPPLTISEITKYLNTEKESLSIACRTNFDMPILDLIKSIRLEQVKKSYLNPHVPKGLKNFTKKQNALYYGFKNWTTFQKFYHQSFQESPDETINKSSKASVLVTDLFTRRS”, “not soluble”; in that of “MGSDKIHHHHHHMTATTATAPTMRGGGRNELPPHLDDNLLTPRFYTTEFDKAAKTDLDIARKDFEAMFKEMEADYNLKHFDRKASLERLSELSPEDKAIYESYLVRSVVSEFSGFLLFKEISNRFKKAGRQELGQFFTFLARDEARHAGFLGRALKAEGINVDLPNLGNKRAATFFPLSWVLYSLYLSEKIGYWRYILINRHLNDNPEKVCAPLFDFFEPWCQDENRHGDCINLMMRCWPGMTKGFRGKLLSRFFLWSVFLTHTLTVCERGDFYGLLGIDPVLFDEEVIIQTNNTSRNAFPWVYNFDDGKFLEMRVQILKAFRNWRESSGLAKPVALSKFVSLILRQFALPMQKTNAVRYG”, “not soluble”. As for “MEFMRVERVLLKDYTTLGVGGPAELWTVETREELKRATEAPYRVLGNGSNLLVLDEGVPERVIRLAGEFQTYDLKGWVGAGTLLPLLVQEAARAGLSGLEGLLGIPAQVGGAVKMNAGTRFGEMADALEAVEVFHDGAFHVYCPEELGFGYRKSHLPPGGIVTRVRLKLKERPKEEILRRMAEVDRARKGQPKRKSAGCAFKNPPGQSAGRLIDERGLKGLRVGDAMISLEHGNFIVNLGQARAKDVLELVRRVQEELPLELEWEVWP”, the “soluble on expression in E. coli” value is “soluble”. With “MTTNNDFYFALLRISILQLLKAQGFDRARPSLVDVMTDLYAKFLSLLASEVSSIAQARCDQDDTIALQDITLALENLGIVKPTNVLDVYDENSELSSSRGMEKFKDWCIYSTQLTDARITALPTVELLQSEEKESDPLSAIPDYLNQLLQNKGAKQKLETKNRKTELIEDLINNNGLDDWIKLVIARQRINMIERASKKESQNVPALPHIAGYKSSILSRHHHTTITNEDRMPSAMTPRDEDALTEIQENPFVTSKLPIMRKENRLENITLSFEDEELESLGEVEGPNQKSQENNNEESFKENNKSLTESPHGDDRDISMFQFDSNVDTKWAEQEDMDSTFQRRTSLDYGGYF”, the “soluble on expression in E. coli” value is on record as “not soluble”. On to “MNKNIDTVREIITVASILIKFSREDIVENRANFIAFLNEIGVTHEGRKLNQNSFRKIVSELTQEDKKTLIDEFNEGFEGVYRYLEMYTNK”, for which the “soluble on expression in E. coli” value is on record as “soluble”.

With “MKKLKVMTVFGTRPEAIKMAPLVLELKKYPEIDSYVTVTAQHRQMLDQVLDAFHIKPDFDLNIMKERQTLAEITSNALVRLDELFKDIKPDIVLVHGDTTTTFAGSLAAFYHQIAVGHVEAGLRTGNKYSPFPEELNRQMTGAIADLHFAPTGQAKDNLLKENKKADSIFVTGNTAIDALNTTVRDGYSHPVLDQVGEDKMILLTAHRRENLGEPMENMFKAIRRIVGEFEDVQVVYPVHLNPVVREAAHKHFGDSDRVHLIEPLEVIDFHNFAAKSHFILTDSGGVQEEAPSLGKPVLVLRDTTERPEGVEAGTLKLAGTDEENIYQLAKQLLTDPDEYKKMSQASNPYGDGEASRRIVEELLFHYGYRKEQPDSFTGKGSHHHHHH”, the “soluble on expression in E. coli” value is reported as “soluble”. As for “MSSKANHAKTVICGIINVTPDSFSDGGQFFALEQALQQARKLIAEGASMLDIGGESTRPGSSYVEIEEEIQRVVPVIKAIRKESDVLISIDTWKSQVAEAALAAGADLVNDITGLMGDEKMPHVVAEARAQVVIMFNPVMARPQHPSSLIFPHFGFGQAFTEEELADFETLPIEELMEAFFERALARAAEAGIAPENILLDPGIGFGLTKKENLLLLRDLDKLHQKGYPIFLGVSRKRFVINILEENGFEVNPETELGFRNRDTASAHVTSIAARQGVEVVRVHDVASHRMAVEIASAIRLADEAENLDLKQYK”, the “soluble on expression in E. coli” value was “soluble”.

On to “MVLKGDAKRIVAMSSTHIAMLDAIGEVRCITGVSGIDYISNPDIQARRDSIGDVGYEGNINYELLLSLDPDLVLLYGVNGASAMESKLEELDIPFMYVGDYLEESPLGKAEWMVVLSEVTGKREKGEKAFAAIPVRYNALKKKVADSTLGLEHHHHHH”, for which the “soluble on expression in E. coli” value is recorded as “not soluble”.
